# Assay results from the supplement of paper PMC11316812.
# ± gives the standard deviation of the averaged measurements.
# How the values were obtained:
# MCF7 = experiment: percentage of EdU-negative (G0-arrested) nuclei per well, 72 h; higher = more G0 arrest; details: reference: sequence is the full UniProt precursor, the tested protein was the secreted form or ectodomain
# hTERT-HMEC = experiment: as above; details: reference: sequence is the full UniProt precursor, the tested protein was the secreted form or ectodomain
# [1] = protein concentration 0.0225 µM
# [2] = protein concentration 0.0357143 µM
# [3] = protein concentration 0.357143 µM
# [4] = protein concentration 0.03125 µM
# [5] = protein concentration 0.3125 µM
# 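Note: secreted proteins added to cultured cells, EdU pulse at the end, nuclei found by Hoechst imaging, EdU status from nuclear versus surrounding ring intensity ratio, PBS as neutral control.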
Sequence,percentage of EdU-negative (MCF7; [1]),percentage of EdU-negative (MCF7; protein concentration 0.225 µM),percentage of EdU-negative (hTERT-HMEC; [1]),percentage of EdU-negative (hTERT-HMEC; protein concentration 0.225 µM),further results
MCVTYHNGTGYCKCPEGFLGEYCQHRDPCEKNRCQNGGTCVAQAMLGKATCRCASGFTGEDCQYSTSHPCFVSRPCLNGGTCHMLSRDTYECTCQVGFTGKECQWTDACLSHPCANGSTCTTVANQFSCKCLTGFTGQKCETDVNECDIPGHCQHGGTCLNLPGSYQCQCLQGFTGQYCDSLYVPCAPSPCVNGGTCRQTGDFTFECNCLPETVRRGTELWERDREVWNGKEHDEN [Q7Z3S9],26 ± 0.95%,24.5 ± 0.49%,5.34 ± 0.17%,5.36 ± 0.21%,–
MKFSPAHYLLPLLPALVLSTRQDYEELEKQLKEVFKERSTILRQLTKTSRELDGIKVNLQSLKNDEQSAKTDVQKLLELGQKQREEMKSLQEALQNQLKETSEKAEKHQATINFLKTEVERKSKMIRDLQNENKSLKNKLLSGNKLCGIHAEESKKIQAQLKELRYGKKDLLFKAQQLTDLEQKLAVAKNELEKAALDRESQMKAMKETVQLCLTSVFRDQPPPPLSLITSNPTRMLLPPRNIASKLPDAAAKSKPQQSASGNNESSQVESTKEGNPSTTACDSQDEGRPCSMKHKESPPSNATAETEPIPQKLQMPPCSECEVKKAPEKPLTSFEGMAAREEKIL [Q86TE4],26 ± 0.38%,30.1 ± 1.1%,5.34 ± 0.34%,8.84 ± 1.3%,–
MGKSASKQFHNEVLKAHNEYRQKHGVPPLKLCKNLNREAQQYSEALASTRILKHSPESSRGQCGENLAWASYDQTGKEVADRWYSEIKNYNFQQPGFTSGTGHFTAMVWKNTKKMGVGKASASDGSSFVVARYFPAGNVVNEGFFEENVLPPKK [Q9H4G4],–,–,–,–,percentage of EdU-negative (MCF7; [2]): 25.6 ± 0.71%; percentage of EdU-negative (MCF7; [3]): 24.5 ± 0.79%; percentage of EdU-negative (hTERT-HMEC; [2]): 4.55 ± 0.31%; percentage of EdU-negative (hTERT-HMEC; [3]): 7.6 ± 0.95%
MTPILTVLICLGLSLGPRTHVQAGHLPKPTLWAEPGSVIIQGSPVTLRCQGSLQAEEYHLYRENKSASWVRRIQEPGKNGQFPIPSITWEHAGRYHCQYYSHNHSSEYSDPLELVVTGAYSKPTLSALPSPVVTSGGNVTLQCVSQVAFDGFILCKEGEDEHPQRLNSHSHARGWSWAIFSVGPVSPSRRWSYRCYAYDSNSPYVWSLPSDLLELLVPGVSKKPSLSVQPGPMVAPGESLTLQCVSDVGYDRFVLYKEGERDFLQRPGWQPQAGLSQANFTLGPVSPSHGGQYRCYSAHNLSSEWSAPSDPLDILITGQFYDRPSLSVQPVPTVAPGKNVTLLCQSRGQFHTFLLTKEGAGHPPLHLRSEHQAQQNQAEFRMGPVTSAHVGTYRCYSSLSSNPYLLSLPSDPLELVVSEAAETLSPSQNKTDSTTTSLGQHPQDYTVENLIRMGVAGLVLVVLGILLFEAQHSQRSLQDAAGR [Q8N149],23.9 ± 0.99%,26.3 ± 3.1%,5.36 ± 0.5%,4.88 ± 0.47%,–
MAGGRHRRVVGTLHLLLLVAALPWASRGVSPSASAWPEEKNYHQPAILNSSALRQIAEGTSISEMWQNDLQPLLIERYPGSPGSYAARQHIMQRIQRLQADWVLEIDTFLSQTPYGYRSFSNIISTLNPTAKRHLVLACHYDSKYFSHWNNRVFVGATDSAVPCAMMLELARALDKKLLSLKTVSDSKPDLSLQLIFFDGEEAFLHWSPQDSLYGSRHLAAKMASTPHPPGARGTSQLHGMDLLVLLDLIGAPNPTFPNFFPNSARWFERLQAIEHELHELGLLKDHSLEGRYFQNYSYGGVIQDDHIPFLRRGVPVLHLIPSPFPEVWHTMDDNEENLDESTIDNLNKILQVFVLEYLHL,25.8 ± 0.78%,29.91 ± 0.092%,5.21 ± 0.26%,4.97 ± 1.1%,–
MRSLLLLSAFCLLEAALAAEVKKPAAAAAPGTAEKLSPKAATLAERSAGLAFSLYQAMAKDQAVENILVSPVVVASSLGLVSLGGKATTASQAKAVLSAEQLRDEEVHAGLGELLRSLSNSTARNVTWKLGSRLYGPSSVSFADDFVRSSKQHYNCEHSKINFRDKRSALQSINEWAAQTTDGKLPEVTKDVERTDGALLVNAMFFKPHWDEKFHHKMVDNRGFMVTRSYTVGVMMMHRTGLYNYYDDEKEKLQIVEMPLAHKLSSLIILMPHHVEPLERLEKLLTKEQLKIWMGKMQKKAVAISLPKGVVEVTHDLQKHLAGLGLTEAIDKNKADLSRMSGKKDLYLASVFHATAFELDTDGNPFDQDIYGREELRSPKLFYADHPFIFLVRDTQSGSLLFIGRLVRPKGDKMRDEL,–,–,–,–,percentage of EdU-negative (MCF7; [4]): 26.6 ± 2.3%; percentage of EdU-negative (MCF7; [5]): 27.2 ± 1.1%; percentage of EdU-negative (hTERT-HMEC; [4]): 4.8 ± 0.84%; percentage of EdU-negative (hTERT-HMEC; [5]): 7.55 ± 1%
MRKMNTLLLVSLSFLYLKEVMGLKCNTCIYTEGWKCMAGRGTCIAKENELCSTTAYFRGDKHMYSTHMCKYKCREEESSKRGLLRVTLCCDRNFCNVF [P0C8F1],24.7 ± 1.3%,27.4 ± 0.56%,4.34 ± 0.4%,7.87 ± 1.3%,–
